Assay results from patent US8551717B2, “Method for determining sumoylation” (Medizinische Hochschule Hannover, priority 2008, dated 2013).

Columns and labels:
Assay type in all cases: cell-based
U-HSF2BP = target: T1, U-HSF2BP (Homo sapiens, UniProt O75031+P63279); assay: Trans-SUMOylation by U-HSF2BP; design: key: (++), strong TransSUMOylation; (+), TransSUMOylation; (+/−) weak TransSUMOylation; (−) no detectable TransSUMOylation; conditions: protein 2 construct coexpressed with U-HSF2BP and EGFP-SUMO1 in HEK293; western blot; Table 2
T1 construct: expressed in transfected cells; host or cells: HEK293
T1 sequence (P63279+O75031 fused): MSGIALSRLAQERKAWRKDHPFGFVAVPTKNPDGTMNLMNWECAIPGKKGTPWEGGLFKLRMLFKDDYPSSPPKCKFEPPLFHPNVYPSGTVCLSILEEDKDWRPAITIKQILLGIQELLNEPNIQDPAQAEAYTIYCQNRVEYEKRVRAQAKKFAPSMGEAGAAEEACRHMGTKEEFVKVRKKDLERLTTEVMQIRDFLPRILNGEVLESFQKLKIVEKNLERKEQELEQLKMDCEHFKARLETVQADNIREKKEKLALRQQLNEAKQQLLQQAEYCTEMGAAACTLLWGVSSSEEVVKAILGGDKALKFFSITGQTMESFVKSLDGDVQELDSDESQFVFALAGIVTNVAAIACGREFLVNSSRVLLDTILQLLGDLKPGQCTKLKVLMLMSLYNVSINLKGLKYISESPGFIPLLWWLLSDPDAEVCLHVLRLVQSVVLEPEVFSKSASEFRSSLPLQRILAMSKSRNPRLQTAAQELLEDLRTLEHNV
Excerpt: (§1) To identify new SUMOylation substrates and to study the function of SUMOylation the Ubc9/substrate dimerisation-dependent SUMOylation system (USDDS) was developed which consists of fusions of the SUMOylation substrate and of the SUMO-conjugating enzyme Ubc9 to the chemically activatable heterodimerisation domains FKBP and FRB, respectively, as shown in FIG. 2. When the substrate protein fused to FKBP is coexpressed with Ubc9-FRB, treatment of HEK293 cells with the rapamycin-related dimerizer AP21967 induces SUMOylation of the substrate protein fused to FKBP at its specific SUMOylation site. […] Dependent on an EcoRl site in the coding sequence, seven C-terminal amino acids of the human STAT1a in the STAT1-FKBP/FRB fusion proteins are missing. For the SUMOylation analysis HEK293 (human embryonic kidney cells) cells have been used. HEK293 cells were cultured in Dulbecco's modified Eagle's medium with high glucose, complemented with 10% fetal calf serum, 2 mM L-glutamine, 100 U/ml penicillin and […] streptomycin. […]
(§2) As shown above, the SUMOylation of a protein of interest can be induced by the heterodimerisation with a binding protein fused to Ubc9. […] Therefore the protein pairs were coexpressed with EGFP-SUMO1 in HEK293 cells and after 24h the transfectants were lysed and the protein extracts were analyzed in western blots. […]

U-HDGF = target: T2, U-HDGF (Homo sapiens, UniProt P51858+P63279); assay: Trans-SUMOylation by U-HDGF; design: key: (++), strong TransSUMOylation; (+), TransSUMOylation; (+/−) weak TransSUMOylation; (−) no detectable TransSUMOylation; conditions: protein 2 construct coexpressed with U-HDGF and EGFP-SUMO1 in HEK293; western blot; Table 2
T2 construct: Ubc9 (fusion partner); expressed in transfected cells; host or cells: HEK293
T2 sequence (P63279+P51858 fused): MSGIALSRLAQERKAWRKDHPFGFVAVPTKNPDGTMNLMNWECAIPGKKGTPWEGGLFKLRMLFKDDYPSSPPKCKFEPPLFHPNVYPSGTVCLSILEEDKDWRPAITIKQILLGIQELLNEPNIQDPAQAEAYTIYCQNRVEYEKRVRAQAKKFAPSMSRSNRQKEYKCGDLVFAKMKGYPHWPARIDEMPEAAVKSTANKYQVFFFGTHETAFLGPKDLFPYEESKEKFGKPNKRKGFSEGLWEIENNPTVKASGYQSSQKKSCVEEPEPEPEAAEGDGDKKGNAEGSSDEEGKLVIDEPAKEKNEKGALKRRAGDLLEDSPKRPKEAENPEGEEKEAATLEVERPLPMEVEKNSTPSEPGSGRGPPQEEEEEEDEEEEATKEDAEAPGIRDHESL
Excerpt: as §1, §2

JUN-U = target: T3, JUN-U (Homo sapiens, UniProt P05412+P63279); assay: Trans-SUMOylation by JUN-U; conditions: protein 2 construct coexpressed with JUN-U and EGFP-SUMO1 in HEK293; western blot; Table 2
T3 construct: expressed in transfected cells; host or cells: HEK293
T3 sequence (P05412+P63279 fused): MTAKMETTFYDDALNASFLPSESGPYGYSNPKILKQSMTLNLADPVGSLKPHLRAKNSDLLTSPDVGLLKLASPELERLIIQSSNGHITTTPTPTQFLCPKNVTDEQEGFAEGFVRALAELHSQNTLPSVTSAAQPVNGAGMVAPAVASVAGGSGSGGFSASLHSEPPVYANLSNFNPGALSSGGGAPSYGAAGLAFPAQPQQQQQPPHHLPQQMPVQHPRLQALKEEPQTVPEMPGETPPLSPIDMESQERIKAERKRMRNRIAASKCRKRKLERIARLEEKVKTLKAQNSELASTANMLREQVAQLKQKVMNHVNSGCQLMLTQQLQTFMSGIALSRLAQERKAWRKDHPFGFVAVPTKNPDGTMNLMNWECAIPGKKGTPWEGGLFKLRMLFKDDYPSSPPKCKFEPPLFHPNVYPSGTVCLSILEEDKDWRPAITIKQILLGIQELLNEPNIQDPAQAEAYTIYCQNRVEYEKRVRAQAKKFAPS

U-MK2 = target: T4, U-MK2 (Homo sapiens, UniProt P49137+P63279); assay: Trans-SUMOylation by U-MK2; conditions: protein 2 construct coexpressed with U-MK2 and EGFP-SUMO1 in HEK293; western blot; Table 2
T4 construct: expressed in transfected cells; host or cells: HEK293

MK2-U = target: T5, MK2-U (Homo sapiens, UniProt P49137+P63279); assay: Trans-SUMOylation by MK2-U; conditions: protein 2 construct coexpressed with MK2-U and EGFP-SUMO1 in HEK293; western blot; Table 2
T5 construct: expressed in transfected cells; host or cells: HEK293
T5 sequence (P49137+P63279 fused): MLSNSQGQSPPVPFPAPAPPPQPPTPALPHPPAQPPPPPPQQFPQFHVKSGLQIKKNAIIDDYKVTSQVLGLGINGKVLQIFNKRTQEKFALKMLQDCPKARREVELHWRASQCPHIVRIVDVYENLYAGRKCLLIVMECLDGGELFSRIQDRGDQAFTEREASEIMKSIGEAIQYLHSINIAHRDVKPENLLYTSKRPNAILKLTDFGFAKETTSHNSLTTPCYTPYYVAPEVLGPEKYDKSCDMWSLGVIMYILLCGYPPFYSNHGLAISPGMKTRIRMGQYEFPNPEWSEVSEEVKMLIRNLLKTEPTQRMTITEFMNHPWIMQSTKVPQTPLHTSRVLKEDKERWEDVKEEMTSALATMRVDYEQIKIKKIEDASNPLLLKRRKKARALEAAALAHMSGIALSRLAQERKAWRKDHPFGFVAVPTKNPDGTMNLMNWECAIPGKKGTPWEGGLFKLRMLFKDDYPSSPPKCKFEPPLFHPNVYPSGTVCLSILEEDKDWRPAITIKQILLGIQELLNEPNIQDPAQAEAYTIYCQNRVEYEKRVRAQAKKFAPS

U-p38α = target: T6, U-p38α (Homo sapiens, UniProt P63279+Q16539); assay: Trans-SUMOylation by U-p38α; conditions: protein 2 construct coexpressed with U-p38α and EGFP-SUMO1 in HEK293; western blot; Table 1
T6 construct: expressed in transfected cells; host or cells: HEK293
T6 sequence (P63279+Q16539 fused): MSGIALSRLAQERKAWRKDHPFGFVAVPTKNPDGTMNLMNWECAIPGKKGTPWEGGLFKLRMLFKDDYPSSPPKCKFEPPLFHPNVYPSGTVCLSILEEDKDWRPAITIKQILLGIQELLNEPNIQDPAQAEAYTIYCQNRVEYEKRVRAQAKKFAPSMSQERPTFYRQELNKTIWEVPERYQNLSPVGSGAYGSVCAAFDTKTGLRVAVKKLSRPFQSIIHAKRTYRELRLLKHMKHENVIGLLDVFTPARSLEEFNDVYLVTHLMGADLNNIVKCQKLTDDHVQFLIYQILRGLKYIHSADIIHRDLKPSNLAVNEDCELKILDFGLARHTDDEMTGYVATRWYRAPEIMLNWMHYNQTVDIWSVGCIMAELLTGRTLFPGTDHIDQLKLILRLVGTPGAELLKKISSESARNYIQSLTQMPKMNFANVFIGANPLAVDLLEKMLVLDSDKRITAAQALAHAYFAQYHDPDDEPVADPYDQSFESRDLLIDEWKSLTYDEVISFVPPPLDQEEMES

ERK2-U = target: T7, ERK2-U (Homo sapiens, UniProt P28482+P63279); assay: Trans-SUMOylation by ERK2-U; conditions: protein 2 construct coexpressed with ERK2-U and EGFP-SUMO1 in HEK293; western blot; Table 2
T7 construct: expressed in transfected cells; host or cells: HEK293
T7 sequence (P28482+P63279 fused): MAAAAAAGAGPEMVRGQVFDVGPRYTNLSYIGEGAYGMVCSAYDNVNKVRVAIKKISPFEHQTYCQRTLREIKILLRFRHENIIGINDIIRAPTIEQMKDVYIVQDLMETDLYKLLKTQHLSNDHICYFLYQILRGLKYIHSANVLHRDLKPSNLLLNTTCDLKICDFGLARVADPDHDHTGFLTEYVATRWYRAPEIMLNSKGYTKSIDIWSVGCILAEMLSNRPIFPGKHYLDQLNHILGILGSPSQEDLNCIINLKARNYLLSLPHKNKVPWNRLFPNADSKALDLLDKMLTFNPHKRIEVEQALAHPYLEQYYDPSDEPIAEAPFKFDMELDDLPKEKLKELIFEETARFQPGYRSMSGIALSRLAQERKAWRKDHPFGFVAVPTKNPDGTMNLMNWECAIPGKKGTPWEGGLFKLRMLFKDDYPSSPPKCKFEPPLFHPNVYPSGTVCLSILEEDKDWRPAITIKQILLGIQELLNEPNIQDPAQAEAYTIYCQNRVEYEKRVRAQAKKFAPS

U-MK5 = target: T8, U-MK5 (Homo sapiens, UniProt P63279+Q8IW41); assay: Trans-SUMOylation by U-MK5; design: key: (++), strong TransSUMOylation; (+), TransSUMOylation; (+/−) weak TransSUMOylation; (−) no detectable TransSUMOylation; conditions: protein 2 construct coexpressed with U-MK5 and EGFP-SUMO1 in HEK293; western blot; Table 2
T8 construct: expressed in transfected cells; host or cells: HEK293
T8 sequence (P63279+Q8IW41 fused): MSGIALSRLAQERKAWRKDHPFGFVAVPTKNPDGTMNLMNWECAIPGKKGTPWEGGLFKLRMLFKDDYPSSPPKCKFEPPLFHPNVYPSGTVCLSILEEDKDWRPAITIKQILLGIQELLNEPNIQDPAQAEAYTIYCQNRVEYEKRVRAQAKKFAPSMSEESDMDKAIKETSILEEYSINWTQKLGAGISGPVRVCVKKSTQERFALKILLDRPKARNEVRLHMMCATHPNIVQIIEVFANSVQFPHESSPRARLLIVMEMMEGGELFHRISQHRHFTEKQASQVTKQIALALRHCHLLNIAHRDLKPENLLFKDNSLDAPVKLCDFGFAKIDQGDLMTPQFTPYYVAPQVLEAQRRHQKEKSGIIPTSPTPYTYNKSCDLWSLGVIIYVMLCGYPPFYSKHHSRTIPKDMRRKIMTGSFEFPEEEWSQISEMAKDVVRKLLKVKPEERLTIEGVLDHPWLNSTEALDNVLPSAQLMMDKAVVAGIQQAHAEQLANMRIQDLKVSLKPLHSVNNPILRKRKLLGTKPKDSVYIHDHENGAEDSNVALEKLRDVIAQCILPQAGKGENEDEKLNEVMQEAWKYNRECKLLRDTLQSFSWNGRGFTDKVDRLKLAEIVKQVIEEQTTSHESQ
Excerpt: as §1, §2

U-ERK2 = target: T9, U-ERK2 (Homo sapiens, UniProt P28482+P63279); assay: Trans-SUMOylation by U-ERK2; conditions: protein 2 construct coexpressed with U-ERK2 and EGFP-SUMO1 in HEK293; western blot; Table 2
T9 construct: expressed in transfected cells; host or cells: HEK293
T9 sequence (P63279+P28482 fused): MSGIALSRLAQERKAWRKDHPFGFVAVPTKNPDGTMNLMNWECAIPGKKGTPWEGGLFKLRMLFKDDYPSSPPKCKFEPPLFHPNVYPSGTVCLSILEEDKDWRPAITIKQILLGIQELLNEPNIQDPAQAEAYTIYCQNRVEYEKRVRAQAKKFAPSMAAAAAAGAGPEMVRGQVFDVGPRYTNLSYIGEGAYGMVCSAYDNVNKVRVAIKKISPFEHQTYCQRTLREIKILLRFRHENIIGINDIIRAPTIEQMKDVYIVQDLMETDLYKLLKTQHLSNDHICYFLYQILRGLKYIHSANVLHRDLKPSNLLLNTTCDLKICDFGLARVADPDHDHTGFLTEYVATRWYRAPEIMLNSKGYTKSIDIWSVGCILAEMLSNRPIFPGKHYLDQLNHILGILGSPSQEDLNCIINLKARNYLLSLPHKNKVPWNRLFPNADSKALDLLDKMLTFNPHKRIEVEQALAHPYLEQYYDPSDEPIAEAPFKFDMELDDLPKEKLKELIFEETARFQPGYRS

U-CSNK2B = target: T10, U-CSNK2B (Homo sapiens, UniProt P63279+P67870); assay: Trans-SUMOylation by U-CSNK2B; design: key: (++), strong TransSUMOylation; (+), TransSUMOylation; (+/−) weak TransSUMOylation; (−) no detectable TransSUMOylation; conditions: protein 2 construct coexpressed with U-CSNK2B and EGFP-SUMO1 in HEK293; western blot; Table 2
T10 construct: expressed in transfected cells; host or cells: HEK293
T10 sequence (P63279+P67870 fused): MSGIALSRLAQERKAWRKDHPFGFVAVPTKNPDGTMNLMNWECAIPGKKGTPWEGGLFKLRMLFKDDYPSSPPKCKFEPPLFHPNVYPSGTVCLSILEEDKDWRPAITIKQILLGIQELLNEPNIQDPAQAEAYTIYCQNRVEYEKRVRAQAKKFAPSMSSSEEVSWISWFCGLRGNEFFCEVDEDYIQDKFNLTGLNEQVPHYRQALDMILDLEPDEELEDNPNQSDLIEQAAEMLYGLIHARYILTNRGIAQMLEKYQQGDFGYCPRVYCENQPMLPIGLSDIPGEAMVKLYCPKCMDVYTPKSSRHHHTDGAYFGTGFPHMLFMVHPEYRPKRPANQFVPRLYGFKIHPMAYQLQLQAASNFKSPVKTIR
Excerpt: as §1, §2

| Trans-SUMOylation (U-HSF2BP) | Trans-SUMOylation (U-HDGF) | Trans-SUMOylation (JUN-U) | Trans-SUMOylation (U-MK2) | Trans-SUMOylation (MK2-U) | Trans-SUMOylation (U-p38α) | Trans-SUMOylation (ERK2-U) | Trans-SUMOylation (U-MK5) | Trans-SUMOylation (U-ERK2) | Trans-SUMOylation (U-CSNK2B) | Molecule |
| --- | --- | --- | --- | --- | --- | --- | --- | --- | --- | --- |
| + | − |  |  |  |  |  |  |  |  | GST-HSF2BP: HSF2BP fused to GST tag (protein, UniProt O75031 1-334, looked up, GST tag) Heat shock factor 2-binding …: MGEAGAAEEACRHMGTKEEFVKVRKKDLERLTTEVMQIRDFLPRILNGEVLESFQKLKIVEKNLERKEQELEQLKMDCEHFKARLETVQADNIREKKEKLALRQQLNEAKQQLLQQAEYCTEMGAAACTLLWGVSSSEEVVKAILGGDKALKFFSITGQTMESFVKSLDGDVQELDSDESQFVFALAGIVTNVAAIACGREFLVNSSRVLLDTILQLLGDLKPGQCTKLKVLMLMSLYNVSINLKGLKYISESPGFIPLLWWLLSDPDAEVCLHVLRLVQSVVLEPEVFSKSASEFRSSLPLQRILAMSKSRNPRLQTAAQELLEDLRTLEHNV |
|  |  | − | − | − | + | (+/−) | (+/−) | − | − | HA-MK5: MK5 fused to HA tag (protein, left off: small tags and cut ends, MK5 fused to HA tag) MSEESDMDKAIKETSILEEYSINWTQKLGAGISGPVRVCVKKSTQERFALKILLDRPKARNEVRLHMMCATHPNIVQIIEVFANSVQFPHESSPRARLLIVMEMMEGGELFHRISQHRHFTEKQASQVTKQIALALRHCHLLNIAHRDLKPENLLFKDNSLDAPVKLCDFGFAKIDQGDLMTPQFTPYYVAPQVLEAQRRHQKEKSGIIPTSPTPYTYNKSCDLWSLGVIIYVMLCGYPPFYSKHHSRTIPKDMRRKIMTGSFEFPEEEWSQISEMAKDVVRKLLKVKPEERLTIEGVLDHPWLNSTEALDNVLPSAQLMMDKAVVAGIQQAHAEQLANMRIQDLKVSLKPLHSVNNPILRKRKLLGTKPKDSVYIHDHENGAEDSNVALEKLRDVIAQCILPQAGKGENEDEKLNEVMQEAWKYNRECKLLRDTLQSFSWNGRGFTDKVDRLKLAEIVKQVIEEQTTSHESQ |
